B1: h14D12.A humanized IgG4 (S228P) kappa (antibody, V domains shown)
VH: QIQLVQSGSELKKPGASVKVSCKASGYTFTNYGMNWVRQAPGQGLEWMGLINTYTGEPTYADGFTGRFVFSLDTSASTAYLQISSLKAEDTAVYFCARERIYGYLHYFDYWGQGTTVTVSS
VL: DVVMTQSPDSLAVSLGERATINCKASQSVDYDGDSYMNWYQQKPGQPPKLLIYAASNLESGVPDRFSGSGSGTDFTLTISSLQAEDVAVYYCQQSNEDPRTFGGGTKLEIKR
B2: h12A12.D humanized IgG4 (S228P) kappa (antibody, V domains shown)
VH: QVQMVQSGSELKKPGASVKVSCKASGYTFTNYWMHWVRQAPGQGLEWMGYINPSTGYTDYNQGFTGRFVFSADKSVSTAYLQISSLKAEDTAVYYCIRGSDYYGRDYWGQGTTVTVSS
VL: EIVMTQSPATLSLSPGERATLSCRASQDISNYLNWYQQKPGQALRLLIYYTSRRHTGIPARFSGSGSGTDYTLTISSLEPEDFAVYYCRQGNTLPWTFGGGTKLEIKR
B3: h13H11.C humanized IgG4 (S228P) kappa (antibody, V domains shown)
VH: QIQLVQSGSELKKPGASVKVSCKASGYTFENFGMNWVRQAPGQGLEWMGWINTYTGEATYADGFTGRFVFSLDTSVSTAYLQISSLKAEDTAVYYCARDGGFRHFDVWGQGTTVTVSS
VL: DTQVTQSPSSLSASVGDRVTITCQTSTDIDDDMNWYQQKPGKAPKLLISEGNTLRTGVPSRFSSSGSGTDFTFTISSLQPEDIATYYCLQSDNLPLTFGGGTKLEIKR
B4: h13H11.B humanized IgG4 (S228P) kappa (antibody, V domains shown)
VH: QIQLVQSGAEVKKPGASVKVSCKASGYTFENFGMNWVRQAPGQRLEWMGWINTYTGEATYADKFQGRVTFTLDTSASTAYMELSSLRSEDTAVYFCARDGGFRHFDVWGQGTTVTVSS
VL: B3 VL with D1E, T56P, S67Y
B5: h13H11.D humanized IgG4 (S228P) kappa (antibody, V domains shown)
VH: B3 VH
VL: B3 VL with D30S, D31N, D32Y, T56P
B6: h13H11.F humanized IgG4 (S228P) kappa (antibody, V domains shown)
VH: B3 VH with G63D, T65K
VL: B3 VL with D1E, T56P, S67Y
B7: h13H11.E humanized IgG4 (S228P) kappa (antibody, V domains shown)
VH: B4 VH with F70I, F95Y
VL: B3 VL with D30S, D31N, D32Y, T56P
B8: h13H11.A humanized IgG4 (S228P) kappa (antibody, V domains shown)
VH: B3 VH
VL: B3 VL with D1E, T56P, S67Y
B9: h13H11.G humanized IgG4 (S228P) kappa (antibody, V domains shown)
VH: B3 VH with G63D, T65K
VL: B3 VL
B10: h13H11.H humanized IgG4 (S228P) kappa (antibody, V domains shown)
VH: B3 VH with G63D, T65K
VL: B3 VL with D30S, D31N, D32Y, T56P
B11: h14C05.E humanized IgG4 (S228P) kappa (antibody, V domains shown)
VH: QVQLVQSGAEVKKPGASVKVSCKASGYTFTNYGMNWVRQAPGQGLEWMGSINTYTGEATYADKFQGRVTMTLDTSTNTAYMELSSLRSEDTAVYYCARGDYYGRGTWFAYWGQGTLVTVSS
VL: ETVVTQSPATLSLSPGERATLSCRASQDVSTAVAWYQQKPGQAPRLLIYSASYRYPGIPARFSGSGSGTDFTLTISSLEPEDFAVYYCQQDYSSPWTFGGGTKLEIKR
B12: h14C05.B humanized IgG4 (S228P) kappa (antibody, V domains shown)
VH: QVQLVQSGSELKKPGASVKVSCKASGYTFTNYGMNWVRQAPGQGLEWMGSINTYTGEATYADGFTGRFVFSLDTSVNTAYLQISSLKAEDTAVYYCARGDYYGRGTWFAYWGQGTLVTVSS
VL: ETQVTQSPSSLSASVGDRVTITCRASQDVSTAVAWYQQKPGKAPKLLIYSASYRYPGVPSRFSGSGSGTDFTLTISSLQPEDFATYYCQQDYSSPWTFGGGTKLEIKR
B13: h14C05.D humanized IgG4 (S228P) kappa (antibody, V domains shown)
VH: B12 VH
VL: B11 VL
B14: h14C05.C humanized IgG4 (S228P) kappa (antibody, V domains shown)
VH: B11 VH
VL: B12 VL
B15: h14C05.F humanized IgG4 (S228P) kappa (antibody, V domains shown)
VH: B12 VH with G63D, T65K
VL: B12 VL
B16: h14C05.G humanized IgG4 (S228P) kappa (antibody, V domains shown)
VH: B12 VH with D62Q, N77S
VL: B12 VL
B17: h14C05.A humanized IgG4 (S228P) kappa (antibody, V domains shown)
VH: B12 VH with Q1E, Q3M, V76A, Y95F
VL: B12 VL
B18: h14C05.H humanized IgG4 (S228P) kappa (antibody, V domains shown)
VH: B11 VH with D62Q, N77S, A79V
VL: B12 VL
B19: h12A12.E humanized IgG4 (S228P) kappa (antibody, V domains shown)
VH: QVQMVQSGAEVKKPGASVKVSCKASGYTFTNYWMHWVRQAPGQGLEWMGYINPSTGYTDYNQKFQGRVTMTADKSTSTAYMELSSLRSEDTAVYYCIRGSDYYGRDYWGQGTTVTVSS
VL: DIQMTQSPSSLSASVGDRVTITCQASQDISNYLNWYQQKPGKAPKLLIYYTSRLHSGVPSRFSGSGSGTDYTFTISSLQPEDIATYYCRQGNTLPWTFGGGTKLEIKR
B20: h12A12.F humanized IgG4 (S228P) kappa (antibody, V domains shown)
VH: B2 VH with M48I, F70L, V76S
VL: B19 VL
B21: h12A12.C humanized IgG4 (S228P) kappa (antibody, V domains shown)
VH: B2 VH with M48I, F70L, V76S
VL: B19 VL with P44L, S56T
B22: h12A12.G humanized IgG4 (S228P) kappa (antibody, V domains shown)
VH: B19 VH with M4L, K74T, A79V
VL: B19 VL
B23: h12A12.A humanized IgG4 (S228P) kappa (antibody, V domains shown)
VH: B19 VH
VL: B19 VL with P44L, Y87F
B24: h12A12.H humanized IgG4 (S228P) kappa (antibody, V domains shown)
VH: B2 VH with M4L, K74T
VL: B19 VL
B25: h12A12.B humanized IgG4 (S228P) kappa (antibody, V domains shown)
VH: B19 VH
VL: B19 VL with P44L, S56T

Numbering of substitutions follows the chain as printed. Numbers in names are those of the source.

We go through 25 molecules from patent US20230348603A1 (VERSEAU THERAPEUTICS, published 2023).

The target in the first assay is T1, Cynomolgus Monkey VSIG4-L-His (cynomolgus monkey).
T1 construct: ECD with His tag; also called cyVSIG4-L; cyno VSIG4-L-His
T1 chain: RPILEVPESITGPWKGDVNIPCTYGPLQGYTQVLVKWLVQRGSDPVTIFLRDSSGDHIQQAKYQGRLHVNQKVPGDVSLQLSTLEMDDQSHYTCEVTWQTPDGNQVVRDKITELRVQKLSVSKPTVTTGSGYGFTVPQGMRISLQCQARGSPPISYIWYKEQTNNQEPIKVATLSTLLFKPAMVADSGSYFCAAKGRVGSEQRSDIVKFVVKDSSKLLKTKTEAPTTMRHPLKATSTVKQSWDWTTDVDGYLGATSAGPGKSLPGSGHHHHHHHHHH
Briefly: BLI, IgG on AHC sensor, antigen 100 nM. (Biolayer interferometry detects binding as a change in optical thickness at a sensor tip.)
Method: (§1) The binding affinity of chimeric antibodies was determined by biolayer interferometry (BLI), using a ForteBio Octet® Red384 system. […] Biosensors were rehydrated prior to the assay in kinetics buffer for 10 minutes and then equilibrated in kinetics buffer for 60 seconds. Antibody was then immobilized for 300 seconds followed by a 120 second baseline wash in fresh kinetics buffer, 300 second analyte association, and 300 second dissociation in the same buffer wells as the baseline wash step. All assay steps occurred at 30° C. with an acquisition rate of 5.0 Hz
(§2) The binding affinity of humanized antibodies and the parental chimeric antibodies was determined by biolayer interferometry (BLI), using a ForteBio Octet® Red384 system, as described above.
B1: the “KD relative to parental chimera” value was found to be 1.2 fold. On to B2, for which the “KD relative to parental chimera” value stood at 1.2 fold.

For the molecule B3, the “KD relative to parental chimera” value was found to be 3.7 fold. The same measure, in the same setting: under B4 stands 0.9 fold; under B5, 1.7 fold. Same read-out and setting: under B6 stands 1.1 fold; under B7, 1.1 fold.

B8: the “KD relative to parental chimera” value came out at 1 fold. Same read-out and setting: the result for B9 reads 0.9 fold; that for B10, 0.9 fold; that for B11, 0.3 fold. As to B12, the “KD relative to parental chimera” value worked out at 0.7 fold. On the same count and under the same terms, under B13 stands 0.5 fold; under B14, 0.6 fold.

For B15, the “KD relative to parental chimera” value was found to be 0.7 fold.

Take B16: the “KD relative to parental chimera” value was found to be 0.7 fold. Same read-out and setting: under B17 stands 0.7 fold; under B18, 0.9 fold. On the same count and under the same terms, the result for B19 reads 0.6 fold; that for B20, 0.4 fold. Regarding B21, the “KD relative to parental chimera” value came out at 0.5 fold. Same read-out and setting: under B22 stands 1.1 fold; under B23, 1 fold. Still for that read-out and setting: the result for B24 reads 1 fold; that for B25, 0.7 fold.

The next assay addresses T2, Human VSIG4-L-His (human, UniProt Q9Y279 20-283).
T2 construct: long isoform ECD with His tag; also called hVSIG4-L
T2 sequence: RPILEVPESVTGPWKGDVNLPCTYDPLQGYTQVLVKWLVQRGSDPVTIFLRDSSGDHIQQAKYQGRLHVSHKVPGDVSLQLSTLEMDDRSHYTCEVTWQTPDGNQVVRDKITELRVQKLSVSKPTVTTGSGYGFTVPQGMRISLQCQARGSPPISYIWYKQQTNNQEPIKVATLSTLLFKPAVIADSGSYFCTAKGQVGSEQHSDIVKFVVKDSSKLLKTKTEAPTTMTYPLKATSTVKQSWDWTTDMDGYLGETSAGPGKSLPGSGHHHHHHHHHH
Briefly: BLI, IgG on AHC sensor, antigen 100 nM.
Method: as §1, §2
B1: the “KD relative to parental chimera” value is 1.1 fold.

Consider B2, for which the “KD relative to parental chimera” value was 1.1 fold.

Turning to B3, the “KD relative to parental chimera” value worked out at 1.2 fold.

For the molecule B4, the “KD relative to parental chimera” value turned out to be 2.5 fold.

As for B5, the “KD relative to parental chimera” value is 0.8 fold. On the same count and under the same terms, the result for B6 reads 1.8 fold. On to B7, for which the “KD relative to parental chimera” value is 1.4 fold. On the same count and under the same terms, the result for B8 reads 2.6 fold; that for B9, 1.2 fold; that for B11, 0.5 fold.

Consider B12, for which the “KD relative to parental chimera” value is 0.7 fold. The same measure, in the same setting: under B13 stands 0.6 fold; under B14, 0.6 fold.

Regarding B15, the “KD relative to parental chimera” value is 0.6 fold. The same measure, in the same setting: the result for B16 reads 0.8 fold; that for B17, 0.8 fold. The same measure, in the same setting: the result for B18 reads 1 fold. As to B19, the “KD relative to parental chimera” value turned out to be 0.6 fold. Still for that read-out and setting: under B20 stands 0.4 fold; under B21, 0.5 fold. On the same count and under the same terms, the result for B22 reads 0.7 fold; that for B23, 0.7 fold; that for B24, 0.8 fold. For the molecule B25, the “KD relative to parental chimera” value was 0.6 fold.
